In US20060287236A1:

Biological target: transferrin receptor (TfR) (human) (UniProt P02786)
Assay: HeLa cell based 125I-transferrin assay

Sequence of transferrin receptor (TfR) (human) (P02786 whole entry): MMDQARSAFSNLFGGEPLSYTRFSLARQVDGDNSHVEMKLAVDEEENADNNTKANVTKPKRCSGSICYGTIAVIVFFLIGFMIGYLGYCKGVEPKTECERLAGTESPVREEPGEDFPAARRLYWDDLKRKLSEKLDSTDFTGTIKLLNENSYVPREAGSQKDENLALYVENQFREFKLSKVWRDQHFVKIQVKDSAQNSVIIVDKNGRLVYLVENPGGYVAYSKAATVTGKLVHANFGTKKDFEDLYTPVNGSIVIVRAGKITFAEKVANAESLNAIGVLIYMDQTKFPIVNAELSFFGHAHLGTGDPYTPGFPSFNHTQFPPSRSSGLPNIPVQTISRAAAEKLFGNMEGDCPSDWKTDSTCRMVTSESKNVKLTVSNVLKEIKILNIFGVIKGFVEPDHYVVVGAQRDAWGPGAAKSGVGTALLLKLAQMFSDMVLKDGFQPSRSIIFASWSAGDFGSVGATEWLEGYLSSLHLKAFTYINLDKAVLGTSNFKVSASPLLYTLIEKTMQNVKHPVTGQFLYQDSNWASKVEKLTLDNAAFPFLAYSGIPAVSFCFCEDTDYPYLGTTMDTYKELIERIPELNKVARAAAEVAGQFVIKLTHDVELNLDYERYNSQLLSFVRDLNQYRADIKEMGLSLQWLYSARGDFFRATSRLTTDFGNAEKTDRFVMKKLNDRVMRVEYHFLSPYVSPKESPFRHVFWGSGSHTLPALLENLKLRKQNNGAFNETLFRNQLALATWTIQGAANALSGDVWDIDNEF

For “soluble H63D-HFE/β2m heterodimer (from UniProt P61769 21-119)”, the K was 105 nM.
